Results taken from patent publication JP2016161390A (dated 2016).

How the values were obtained:
ヒトFRβ(FRβ発現B300−19細胞) [1] = target: T1, ヒトFRβ(FRβ発現B300−19細胞) (human, UniProt P14207 17-230); test: Flow cytometry on B300-19 cells expressing FRβ, antibody at 1 μg/ml, APC anti-rat detection
T1 construct: whole, on cells; also called 葉酸リセプターβ

ヒトFRα(FRα発現KB細胞) = target: T2, ヒトFRα(FRα発現KB細胞) (human, UniProt P15328 25-234); test: Hybridoma screening on cells expressing FRβ and on KB cells expressing FRα
T2 construct: whole, on cells
T2 sequence (P15328 25-234): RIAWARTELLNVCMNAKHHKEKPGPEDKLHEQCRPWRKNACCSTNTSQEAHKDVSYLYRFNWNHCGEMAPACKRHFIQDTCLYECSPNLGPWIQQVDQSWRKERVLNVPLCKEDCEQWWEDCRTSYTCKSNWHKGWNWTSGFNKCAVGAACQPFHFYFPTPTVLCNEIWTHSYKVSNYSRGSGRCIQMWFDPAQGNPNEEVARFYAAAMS

ヒトFRβ(FRβ発現B300−19細胞) [2] = target: T1, ヒトFRβ(FRβ発現B300−19細胞); test: Flow cytometry on B300-19 cells expressing FRβ, in the presence of F(ab')2 No.5, APC-streptavidin detection

T1 sequence (P14207 17-230): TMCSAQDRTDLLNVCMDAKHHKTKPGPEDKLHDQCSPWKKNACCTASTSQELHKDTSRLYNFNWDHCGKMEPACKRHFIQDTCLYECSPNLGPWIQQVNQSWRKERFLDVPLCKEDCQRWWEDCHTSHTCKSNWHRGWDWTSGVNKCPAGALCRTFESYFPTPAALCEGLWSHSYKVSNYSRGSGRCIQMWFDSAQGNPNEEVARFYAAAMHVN

Binder | binding result (ヒトFRβ(FRβ発現B300−19細胞) [1]) | binding result (ヒトFRα(FRα発現KB細胞)) | binding result (ヒトFRβ(FRβ発現B300−19細胞) [2])
抗ヒトFRラットモノクローナル抗体(クローン名:No.5) (antibody, V domains shown, Rat monoclonal antibody purified from hybridoma supernatant; the constant regions are not; also called 抗体No.5) VH: QVQLKESGPGLVQPSQTLSLTCTVSGFSLTSNSVSWVRQPPGKGLEWMGAIWSGGSTDYNSALKSRLSISKDTSKSQVFLKMNSLQTEDTAIYFCTRYYGYTYFAYWGQGVMVTVSS VL: DIQMTQSPASLSASLEEIVTITCQASQDIGNWLAWYQQKPGKSPQLLIYDAIRLADGVPSRFSGSRSGTQYSLKISRLQVEDIGDYYCQQGQSNPRTFGGGTKLELK | binds | binds | 
ビオチン化No.2抗体 (antibody, V domains shown, biotinylated with Sulfo-NHS-LC-Biotin; sites not stated, also called 検出抗体; ビオチン化抗FRβ抗体) VH: QVQLQQSGAELAKPGSSVKISCKASGYTFTTYYINWIKQTTGQGLDYIGYINTRSGGTNYNEKFKGKATLTVDKSSSTAFMQLSSLTPDDSAVYYCAREGIIRGAEVMDAWGQGASVTVSS VL: DIQMTQTPSSMPASLGERVTISCRASQGISNYLNRYQQKPDGTIKLLIYYTSNLQSGVPSRFSGSGSGTDYSLTISSLEPEDFAMYYCQQYDSSPPTFGGGTKLELK |  |  | binds
抗ヒトFRβラットモノクローナル抗体(クローン名:No.2) (antibody, V domains shown, Rat monoclonal antibody purified from hybridoma supernatant; the constant regions are not; also called 抗体No.2) VH: QVQLQQSGAELAKPGSSVKISCKASGYTFTTYYINWIKQTTGQGLDYIGYINTRSGGTNYNEKFKGKATLTVDKSSSTAFMQLSSLTPDDSAVYYCAREGIIRGAEVMDAWGQGASVTVSS VL: DIQMTQTPSSMPASLGERVTISCRASQGISNYLNRYQQKPDGTIKLLIYYTSNLQSGVPSRFSGSGSGTDYSLTISSLEPEDFAMYYCQQYDSSPPTFGGGTKLELK | binds |  | 
